Molecular target: β-haemoglobin (β^h), haem-bound, from human blood (human)
Assay: SEC-MALS

stoichiometry N: 4
Substance: β-haemoglobin (β^h), haem-bound, from human blood (natural protein)

— paper PMC4384432
